From patent publication US20030180744, “High affinity oligonucleotide ligands to growth factors” (GILEAD SCIENCES, INC., published 2003)

What was measured:
[1] = biological target: T1, KGF (hKGF) (Homo sapiens, UniProt P21781 P21781:32-194); assay: filter; biphasic, high affinity 28%; conditions: tags: Upstate Biotechnology; label: 32P
T1 sequence: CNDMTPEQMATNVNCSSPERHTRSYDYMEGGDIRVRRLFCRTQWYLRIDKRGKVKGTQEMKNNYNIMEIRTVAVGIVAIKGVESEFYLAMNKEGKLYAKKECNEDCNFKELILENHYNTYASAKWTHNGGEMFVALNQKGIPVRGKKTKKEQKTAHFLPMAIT

[2] = biological target: T1, KGF (hKGF); assay: competition; PC-3 cells; conditions: tags: Upstate Biotechnology
Description: (§1) PC-3 cells were plated in 24-well plates at about 10⁵ cells per well. Following growth for […], the cells were serum starved for 24 hours, washed two times with 500 μl of cold DPBS, and then incubated with 500 μl binding buffer (BB1; DPBS, 0.5 mM MgCl₂, 0.2% BSA. 0.02% sodium azide) containing various concentrations of ¹²⁵I-labeled KGF ranging from 0 to 0.8 nM. Following 3-3.5 hour incubation at 4° C., the binding mixes were aspirated and the well-adhered cells were washed two times with 1 ml BB1 and once with 1 ml BB1 supplemented with 0.5M NaCl. The remaining bound labeled hKGF was solubilized in 600 μl 0.5% SDS/0.1M NaOH and counted in a gamma counter (Beckmann). Nonspecific binding was determined in the presence of 100 fold molar excess of unlabeled hKGF. For competition assays, the labeled hKGF was kept constant at […], and varying concentrations of competitor molecules were included in the binding reactions ranging from 0-1,000 nM. Binding curves were fitted to the equation: […]
(§2) A subset of these ligands was tested on the NIH3T3/FGFR-2. In determining the Ki values, it was assumed that 3T3 cells have 500,000 binding sites per cell and PC-3 cells have 5,000 binding sites per cell.

[3] = biological target: T2, bFGF (Example 20) (UniProt P09038 P09038:143-288); assay: truncated ligand from deletion analysis
[4] = biological target: T1, KGF (hKGF); assay: filter; biphasic, high affinity 43%; Kd2 2.55 nM; conditions: tags: Upstate Biotechnology; label: 32P
[5] = biological target: T1, KGF (hKGF); assay: filter; biphasic, high affinity 33%; conditions: tags: Upstate Biotechnology; label: 32P
[6] = biological target: T1, KGF (hKGF); assay: filter; biphasic, high affinity 37%; Kd2 3.25 nM; PC-3 Ki 0.16 nM; conditions: tags: Upstate Biotechnology; label: 32P; pseudoknot (predicted)
[7] = biological target: T1, KGF (hKGF); assay: competition; PC-3 cells; 6.8 nM on NIH3T3/FGFR-2; 830 pM Balb/MK; conditions: tags: Upstate Biotechnology; pseudoknot
Description: as §1, §2

[8] = biological target: T1, KGF (hKGF); assay: filter; DPBS, 37 C; PC-3 Ki […] nM; conditions: tags: Upstate Biotechnology; label: 32P
[9] = biological target: T1, KGF (hKGF); assay: competition; PC-3 cells; 10.6 nM partial on NIH3T3/FGFR-2; conditions: tags: Upstate Biotechnology
Description: as §1, §2

[10] = biological target: T3, TGFβ1 (Homo sapiens, UniProt P01137 P01137:279-390); assay: cell_activity; conditions: tags: Genentech or R&D Systems; chain copies: 2
Description: MLEC-Pail/luc cells were plated at 3.2×10⁴ cells per well in a 96 well Falcon plate, in 100 μl of DME+10% fetal bovine serum overnight. Media was made from autoclaved water. The cells were washed three times ([…]) in serum free DME plus Solution A (1:1). Solution A is 30 mM Hepes pH 7.6, 10 mM glucose, 3.0 mM KCl, 131 mM NaCl, 1.0 mM disodium phosphate. Samples (100 μl) were added in DME containing 20 mM Hepes pH 7.5, and 0.1% BSA (Fluka, radioimmunoassay grade). All samples were in triplicate. After six hours at 37° C. in a 5% CO₂ incubator the media was removed and cells were washed three times (100 μl each) in cold PBS. Lysis buffer (75 μl) (Analytical Luminescence Laboratory) was added and the plates incubated on ice for 20 min. The plates were sealed and frozen at −80° C. until assayed. Samples (25 μl) were assayed for luciferase activity with the Enhanced Luciferase Assay Kit from Analytical Luminescence Laboratory (San Diego, Calif., USA) according to the manufacturer's instructions using the Berthold Microlumat LB96P luminometer.
Ligands tested for inhibition of TGFβ1 activity were tested at a minimum of five concentrations. The ligands were serially diluted in DME, 20 mM Hepes pH 7.5, 0.1% Fluka BSA in polypropylene tubes and an equal volume of media containing 12 pM TGFβ1 was added to each tube, vortexed and transferred to the cells without further incubation.

[11] = biological target: T3, TGFβ1; assay: filter; 37 C; cell IC50 210 nM; conditions: tags: Genentech; biotinylated version used in bead assay; chain copies: 2
[12] = biological target: T3, TGFβ1; assay: filter; 37 C; cell IC50 124 nM; conditions: tags: Genentech; biotinylated version used in bead assay; chain copies: 2
[13] = biological target: T3, TGFβ1; assay: filter; 3' boundary experiment; conditions: tags: Genentech or R&D Systems; chain copies: 2
[14] = biological target: T4, PDGF-AB (Homo sapiens, UniProt P04085;P01127 P04085:87-211,P01127:82-190); assay: efficient photo-crosslinking at 308 nm, to Phe84 of B chain; conditions: tags: R&D Systems, E. coli; chain copies: A/B chain dimer
[15] = biological target: T4, PDGF-AB; assay: filter; substitution pattern compatible with high affinity; conditions: tags: R&D Systems, E. coli; chain copies: A/B chain dimer; three-way helix junction
[16] = biological target: T1, KGF (hKGF); assay: filter; second value 8.70 nM; conditions: tags: Upstate Biotechnology; label: 32P
[17] = biological target: T2, bFGF (Example 20); assay: parent SELEX ligand
[18] = biological target: T3, TGFβ1; assay: filter; 37 C; cell IC50 17 nM; conditions: tags: Genentech; biotinylated version used in bead assay; chain copies: 2
[19] = biological target: T1, KGF (hKGF); assay: filter; equimolar halves; high -, low -; conditions: tags: Upstate Biotechnology
Description: In an effort to identify shorter KGF ligands that retained binding, the binding activity of various deletions of the shortest truncate of ligand 14F, namely 14F3′T were tested. Deletions were tested in all the structural elements of the proposed pseudoknot structure. RNA transcripts containing 2′F pyrimidines and 2′OH purines were obtained by in vitro transcription using synthetic DNA templates. The activity of each ligand is shown by scoring for both the high (H) and low (L) affinity component of the 14F3′T binding curve with +(active) or −(not active). Truncates T35 and T36 represent two complementary halves of 14F3′T molecule and were additionally tested as an equimolar mixture. The structural elements of the proposed pseudoknot structure are separated by (1) and are indicated by symbols S1 (stem 1), S2 (stem 2), L1 (loop 1) and L3 (loop 3). The proposed pseudoknot structure for 14F3′T is a non-H-type pseudoknot and lacks L2 (loop 2). The complementary sequences forming S1 (S1 and S1′) and S2 (S2 and S2′) are marked by single and double underlines respectfully. In the tabulated sequences, deleted bases were replaced with periods (.). […] Deletions in loop 3 (L3), however, were tolerated as long as one copy of the RRYY box remained intact. The shortest ligand that retained activity is T22 which is a 43-mer. […]

[20] = biological target: T1, KGF (hKGF); assay: competition; PC-3 cells; 2.7 nM on NIH3T3/FGFR-2; 92 pM Balb/MK; conditions: tags: Upstate Biotechnology; pseudoknot
Description: as §1, §2

[21] = biological target: T1, KGF (hKGF); assay: filter; biphasic, high affinity 25-44%; text p221 gives 0.3-3 pM and 2-10 nM; PC-3 Ki 0.2 nM; conditions: tags: Upstate Biotechnology; label: 32P; pseudoknot (predicted)

T3 sequence (P01137 279-390, one chain of several): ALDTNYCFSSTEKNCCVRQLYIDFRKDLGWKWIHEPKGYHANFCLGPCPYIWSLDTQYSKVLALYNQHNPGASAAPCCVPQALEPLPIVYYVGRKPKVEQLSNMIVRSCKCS
T4 sequence (P01127 82-190, chain 2 of 2, other chains not shown): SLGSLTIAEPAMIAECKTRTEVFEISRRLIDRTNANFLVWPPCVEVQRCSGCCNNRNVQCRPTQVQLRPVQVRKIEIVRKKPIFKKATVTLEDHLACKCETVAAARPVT
T2 sequence (P09038 143-288, one chain of several): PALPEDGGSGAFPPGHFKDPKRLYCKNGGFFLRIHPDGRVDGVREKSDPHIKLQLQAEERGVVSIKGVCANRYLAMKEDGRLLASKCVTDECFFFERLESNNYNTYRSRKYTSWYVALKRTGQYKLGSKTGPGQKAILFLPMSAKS

B1: 13F (ssRNA)
RNA: GGGAGGACGAUGCGGCACCUUAGACCUGUCCUCCAAGCGUGAGUUGCUGUGGCCCAGACGACUCGCCCGA
modifications: 2'-F pyrimidines
In the case of B1, the Kd [1] is reported as 0.03 nM and the IC50 [2] is reported as 30 nM.

GGUGUGUGGAAGACAGCGGGUGGUUC (ssRNA, 2'-NH2 pyrimidines) [21A-t]: binds [3].

B2: 26F (ssRNA)
RNA: GGGAGGACGAUGCGGUCAAGCUUAACAGUCUGGCAAUGGCCAUUAUGGCGCCCCAGACGACUCGCCCGA
modifications: 2'-F pyrimidines
For B2, the Kd [4] was 0.23 nM.

B3: 15F (ssRNA)
RNA: GGGAGGACGAUGCGGUCAUGGUGUCUUUCCACAGCUCUUCCCAUGAUCGCCCGGCCAGACGACUCGCCCGA
modifications: 2'-F pyrimidines
Binder B3 has a Kd [5] of 0.07 nM and an IC50 [2] of 20 nM.

B4: 6F (ssRNA)
RNA: GGGAGGACGAUGCGGGAUCCUUUGUGGGCUCUUGUUGACCCCCUCGUUGUCCCCCCCAGACGACUCGCCCGA
modifications: 2'-F pyrimidines
B4 gave a Kd [6] of 0.05 nM, an IC50 ([2]; pseudoknot) of 4 nM and a Ki [7] of 0.16 nM.

B5: 14N (ssRNA)
RNA: GGGAGGACGAUGCGGUCCAGGGAUUGAAGUGUCGGGGUAGGAACAUAAAGGCGGCCAGACGACUCGCCCGA
modifications: 2'-NH2 pyrimidines
B5 was tested, and the Kd [8] was 0.44 nM, the Ki [9] was 1.4 nM and the IC50 [2] was 6 nM.

B6: lib8-9 (ssRNA)
RNA: GGGGGAGAACGCGGAUCCGCAAUCCCAGGCGCAUAGCUUCCGAGUAGACAGGAGGGAGGGGUGGAUGUGGCGUCUACUCGGCGUCGUGAAGCUUCGCUCUAGAUCUCCCUUUAGUGAGGGUUA
modifications: 2'-NH2 pyrimidines
Work on B6 yielded an IC50 [10] of 210 nM and a Kd [11] of 1.7 nM.

B7: lib8-9* (ssRNA)
RNA: B6 RNA
modifications: 2'-NH2 U, 2'-F C
For B7, the Kd [12] was 2.8 nM.

B8: lib4-32 boundary (ssRNA)
RNA: GGGGGAGAACGCGGAUCCGGCAACCCCAGGCGCAUAGCUUCCGAGUAGACAGGCGGGAGGGGUGGAUGUGGCGUCACG
modifications: modified pyrimidines
B8: binds [13].

TGGGAGGGCGCGTTCTTCGTGGTTACTTTTAGTCCCG (ssDNA, 5-iodo-dU at 24) [20t-I4]: binds [14].

B9: 36t 2'-OMe/2'-F (mixed)
mixed: CAGGCUACGGCACGTAGAGCAUCACCATGATCCUG
modifications: 2'-OMe C8,C11,C25,C26,G9,G10,G17,G19,G35,A12,A24,A27,U34; 2'-F U6,U22,C23,C32,C33; 3'-3' idT
B9: binds [15].

B10: 20F (ssRNA)
RNA: GGGAGGACGAUGCGGAGUAUUCCAGCCUGGAUUCAUAGUCAGUGCUCUCCGUGCCCAGACGACUCGCCCGA
modifications: 2'-F pyrimidines
Binder B10 has a Kd [16] of 2.05 nM.

B11: 21A (ssRNA)
RNA: GGGAGACAAGAAUAACGCUCAAGUAGACUAAUGUGUGGAAGACAGCGGGUGGUUCGACAGGAGGCUCACAACAGGC
modifications: 2'-NH2 pyrimidines
B11: binds [17].

B12: lib5-7 (ssRNA)
RNA: GGGGGAGAACGCGGAUCCGAGCAAGCCCUGGCAUAGCUUCCGAGUAGACAGGAGGGAGGGGUGGAUGUGGCGUCUACUCGGUGUCGUGAAGCUUCGCUCUAGAUCUCCCUUUAGUGAGGGUUA
modifications: 2'-NH2 pyrimidines
B12 gave an IC50 [10] of 17 nM and a Kd [18] of 3.4 nM.

B13: T35/T36 equimolar (ssRNA)
RNA 1: GGUGGUCUCCCAAUUCUAUUCUCCAUCGUAUC
RNA 2: GGGAGGACGAUG
modifications: 2'-F pyrimidines
B13: no binding [19].

B14: 14F (ssRNA)
RNA: GGGAGGACGAUGCGGUGGUCUCCCAAUUCUAAACUUUCUCCAUCGUAUCUGGGCCAGACGACUCGCCCGA
modifications: 2'-F pyrimidines
B14 was tested, and the Ki [20] was 0.2 nM, the Kd [21] was 0.0134 nM and the IC50 ([2]; pseudoknot) was 10 nM.
